The values below come from PMC8178172 (Structure (London, England : 1993), 2021).

In the assay the target is human PACRG full-length short isoform (PACRG^FL, 257 a.a.) (human, UniProt Q96M98-2 1-257). Nature of the assay: cross-linking.

B1: human MEIG1 (His6 tag cleaved) (natural protein)
chain: MASSDVKPKSVSHAKKWSEEIENLYRFQQAGYRDETEYRQVKQVSMVDRWPETGYVKKLQRRDNTFYYYNKQRECDDKEVHKVKIYAY
Regarding B1, the binding result is reported as “binds”.
